Read-outs that look alike come from different tables or passages of the source.
Molecular target: bFGF (basic fibroblast growth factor) (UniProt P09038)
Sequence (P09038 143-288): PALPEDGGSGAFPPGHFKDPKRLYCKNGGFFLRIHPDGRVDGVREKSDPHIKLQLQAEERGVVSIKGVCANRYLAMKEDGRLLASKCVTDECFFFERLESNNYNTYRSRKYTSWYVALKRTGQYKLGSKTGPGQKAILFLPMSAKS

Which Kd (3'-tetraethyleneglycol cholesterol, binding assay with 5'-32P-labeled conjugate, assay type not stated) does the source give for GGGCTTTGTAAAACCCCGC [225t3-Chol] here?
The Kd was 1 nM.

Which Kd (reference ligand, same affinity as PEG and cholesterol conjugates, binding assay type not stated) does the source give for GGGCTTTGTAAAACCCCGC [225T3] here?
The Kd was 1 nM.

For GGGCTTTGTAAAACCCCGC [225T3N-PEG-3400], which Kd (3'-amino-modifier C7 conjugated to PEG 3400 [3' end after position 19: NN = non-nucleotide 3'-amino-modifier C7 and PEG 3400, left out], binding assay with 5'-32P-labeled conjugate, assay type not stated) is on record?
Its Kd is 1 nM.
